Here are results for four proteins from PMC6318282, “Completion of the cytosolic post-chorismate phenylalanine biosynthetic pathway in plants” (Nature Communications, 2019).

Substrate in data set [1]: O=C(O)C(=O)CC1(C(=O)O)C=CC(O)C=C1
Put plainly: purified protein. Particulars: 20 mM Tris-HCl pH 8.0, 1 mM EDTA, 37 °C. The data set is classed as biochemical, Petunia x hybrida.

Substrate in data set [2]: C=C(O[C@@H]1C=C(C(=O)O)C=C[C@H]1O)C(=O)O
The data set can be described thus: purified protein. Format: biochemical, Petunia x hybrida. Particulars: 20 mM Tris-HCl pH 8.0, 1 mM EDTA, 37 °C.

B1: PhADT3S (Petunia x hybrida) (protein)
chain: MHGAQLRVAYQGVPGAYSEAAAGKAYPKCEAIPCDQFEVAFQAVELWIADRAVLPIENSLGGSIHRNYDLLLRHRLHIVGEVQLPVHHCLLALPGVRKEYLTRVISHPQALAQCELTLTKLGLNVAREAVDDTAGAAEYIAANNLRDTAAIASSRAAELYGLDILEQGIQDDLSNVTRFVMLAREPIIPRTDRPFKTSIVFAHDKGTSVLFKVLSAFAFRNISLTKIESRPHRNRPIRLVDDANVGTAKHFEYMFYVDFEASMADVRAQNALAEVQEFTSFLRVLGSYPMDMTPWSPSRDA
notes: short isoform starting at second in-frame ATG (133 residues downstream of first Met), intact catalytic and ACT domains, about 33 kD, N-terminal 6xHis tag (pET-28a), E. coli, Ni-NTA
In general, Km refers to the concentration of substrate that gives half-maximal velocity. For orientation: Vmax means the top rate of the reaction or transport when substrate is in excess. Turning to B1, in data set [1], the Km was found to be 433 ± 73 µM and the Vmax turned out to be 0.113 µmol/min/mg.

B2: PhCM2 (Petunia x hybrida) (protein)
chain: MACGDYDDKLSLDLIRDSLIRQEDTIIFNLIERIKFPINSTLYKKPSSWFPDFTGSLFQYLFQETEALQSKVGRYLSPEENPFFPDNLPASIVPPSKCPPVLHPVAESININEKILDVYLNQLLPLFCTEADEGNYATTAACDIQLLQAISRRIHYGKFVAEVKFRDCSDEYTPLILAQQDRDALMKLLTFEVVEEMVKKRVAKKAMIFGQEVTLVDNAKEVKCKVDPLLVSRLYDEWIMPLTKHVQVEYLLRRLDQNKLTSI
notes: coding region, N-terminal 6xHis tag (pET-28a), E. coli, Ni-NTA
Consider B2, for which, in data set [2] (reaction volume 225 μl), the Km is 8.6 ± 1.2 µM and the maximum rate (Vmax) worked out at 114 µmol/min/mg.

B3: PhCM1 (Petunia x hybrida) (protein)
chain: QASATSLGLGNKNRVDETESYTLDGIRHSLIRQEDSIIFSLVERAQYCYNAETYDPDVFAMDGFHGSLVEYIVRETEKLHATVGRYKSPDEHPFFPKVLPEPVLPPMQYPKVLHPIADSININVKIWEMYFENLLPRLVKEGDDGNYGSTAVCDTICVQALSKRIHYGKFVAEAKYRASPEVYNAAIRAQDRNGLMDLLTYPAVEEAIKRRVEIKTRTYGQELHINGPENGGDPVYKIKPSLVAELYGDWIMPLTKEVQVQYLLRRLD
In the case of B3, in data set [2], the Km turned out to be 174 ± 27 µM and the Vmax worked out at 45.7 µmol/min/mg.

B4: PhADT3L (Petunia x hybrida) (protein)
chain: AGAAAVNTGVVNTPASNNTAGHVGASRTDWQSSCAILASKVVSQQQDTEKSGGAGNITAVNGHKILNLDLLPVESNRAKPLTITDLSPAPMHGAQLRVAYQGVPGAYSEAAAGKAYPKCEAIPCDQFEVAFQAVELWIADRAVLPIENSLGGSIHRNYDLLLRHRLHIVGEVQLPVHHCLLALPGVRKEYLTRVISHPQALAQCELTLTKLGLNVAREAVDDTAGAAEYIAANNLRDTAAIASSRAAELYGLDILEQGIQDDLSNVTRFVMLAREPIIPRTDRPFKTSIVFAHDKGTSVLFKVLSAFAFRNISLTKIESRPHRNRPIRLVDDANVGTAKHFEYMFYVDFEASMADVRAQNALAEVQEFTSFLRVLGSYPMDMTPWSPSRDA
With B4, in data set [1], the Km is 358 ± 32 µM and the maximum rate (Vmax) amounted to 0.125 µmol/min/mg.
